Measured values reported in article PMC4558205 (Structure (London, England : 1993), 2015).

B1: synthetic antibody fragment (sAB) M1 (Fab, V domains shown)
VH: EVQLVESGGGLVQPGGSLRLSCAASGFNFSSSSIHWVRQAPGKGLEWVASISPSYGYTYYADSVKGRFTISADTSKNTAYLQMNSLRAEDTAVYYCARGIWSYWYMVYPHDNYGMDYWGQGTLVTVSS
VL: DIQMTQSPSSLSASVGDRVTITCRASQSVSSAVAWYQQKPGKAPKLLIYSASSLYSGVPSRFSGSRSGTDFTLTISSLQPEDFATYYCQQSSSRPVTFGQGTKVEIK
B2: Mj0480, archaeal DUF106 protein from Methanocaldococcus jannaschii (natural protein, UniProt Q57904 1-198, looked up)
chain: MFGSIFDIYYKTLDAIFMPIIKVLHPALAILIIAIIVSLIINIATKLLVDQKRVAELKKEIQEFQVKFKKMSKNPEMMEKLQEEQQRIMQLNAELMKMSFRPMIYTWVPIILIFIYLRHVYGFGGVYQELNPGWNGVVVYLPIILSKILFIDFWHWLGSIFYKGGFKIVSNTALGWLGWYILCSFATSTVLRKILGIK

What was measured:
[1] = target: Mj0480, archaeal DUF106 protein from Methanocaldococcus jannaschii (Methanocaldococcus jannaschii, UniProt Q57904); test: SEC
crystal structure = target: the molecule itself; test: crystal structure

Binder	stoichiometry N [1]	binding result (crystal structure)
B1	1	
B2		binds
